Reference: the DeepSol protein solubility set

Assay: soluble on expression in E. coli; label from the status in PepcDB or PDB records

## MPQDVDFHIPLPGRQSPDHARAEAEQLAWPRSLGLIRSDAAAERHLRGGYADLASRFYPHATGADLDLGVDLMSWFFLFDDLFDGPRGENPEDTKQLTDQVAAALDGPLPDTAPPIAHGFADIWRRTCEGMTPAWCARSARHWRNYFDGYVDEAESRFWNAPCDSAAQYLAMRRHTIGVQPTVDLAERAGRFEVPHRVFDSAVMSAMLQIAVDVNLLLNDIASLEKEEARGEQNNMVMILRREHGWSKSRSVSHMQNEVRARLEQYLLLESCLPKVGEIYQLDTAEREALERYRTDAVRTVIRGSYDWHRSSGRYDAEFALAAGAQGYLEELGSSAH
  soluble on expression in E. coli: soluble

## MGSDKIHHHHHHMKIHQLRALVAVTTAGSIKAAARTMHVTQPAISKAIQELENEFGVPLLERKPWGVVPTPEGDALLGRAQAVVRELERANEDMAHMKGLRDGRLVIGFTPIVAVTGFAEAYAAFRRHWPNVECELRELTFNLLTEQLRNRTLDLAFVAVTGPLSESVDIKAIRTFDTAFVTRENGRFAGATSLDALRDAEWIHADASDSFPTYIRDLHAHAGLPPPRCITRCTSYALFYSLLMTNDAIFSWTRLSLAETVFGQKLTPLPLPMSPPPLQLYRLTPPGLQLTRPASDFLAHVETAFASNQLTGDVQR
  soluble on expression in E. coli: not soluble

## MTQPPASTSGIMGTLSSWNLKILQINQLHLVHWNAVKFENFEDAALEENGLAVIGVFLKISETSGSPVSTGRPKPLARKLRPAQKHWVLQSRPFLSSQVQENCKVTYFHRKHWVRIRPLRTTPPSWDYTRICIQREMVPARIRVLREMVPEAWRCFPNRLPLLSNIRPDFSKAPLAYVKRWLWTARHPHSLSAAW
  soluble on expression in E. coli: soluble

## SDRAEVRNIPFKLGMYLTVGGVVNSNATRFSINVGESTDSIAMHMDHRFSYGADQNVLVLNSLVHNVGWQQEERSKKFPFTKGDHFQITITFDTHTFYIQLSNGETVEFPNRNKDAAFNLIYLAGDARLTFVRLE
  soluble on expression in E. coli: soluble

## MGSDKIHHHHHHMTTQSFIATKEHRRFAEFADAVRRQHTIGICYGHAGIGKTLSAKRYANWHKAENLIEQWGPRDDADYQIYAALARARTVFYTPAVLTSPKQIHAELEHISTRVSICVDQHLEKIGKKTGPHTRTGKHVELLIIDESERLNATALELLRDRYDRDNIALILIGMPGIEKWFSRYAQLYSRVGFAHEYRPLAQEELNFVLERRWHKLGQTLDPEDFTDAQAIAAVARITRGNFRLIDRLFTQIERVMKINELSTITDDVIEAARSTLVIGIS
  soluble on expression in E. coli: not soluble

## MPKWGNINERRNQLHEVIRLSGMNLIIDDTDHPLIIKVASIQSARMQVYFIDNDDYFQNRLQTADENGVEYDDNDSRAIFYARGVLETVKKLRWCPDVIHCHGWMTALAPLYIKKAYKDEPSFRDAKVVFSVYEDDFKNTLSEDFATKLMLKGITKKDLAGLKEPVDYAALCKLAVDYSDGIIQNSAKVDESIIEYARQSGKLVLDYQDPENYANACNEFYDQVWETTTNKEEELEHHHHHH
  soluble on expression in E. coli: soluble

## MSLDVSVSATGHDNVTARHDSTLELTTDDFLTPAGDCILGIDADCSPAAFSDAFVAACQDAAATITLVLDTPQHRDEITGSGHPDLTFTNDRSMVGRTSTYVDDRTVFVDADKAAADVDREMVAALADGAPLTATLRVDEGHHHHHH
  soluble on expression in E. coli: soluble

## MAERRMFAKTIIDSDAFLDMPLSSQALYFHLAMRADDDGFINNPKKLQRMVGCGEDDLKLLMVKKFILVFESGVIVIKHWKIHNYIRSDRYKPTLYQEEKNQIVEKNSKAYTFKAESSVGGQPADYQRLPQESIVQSKLGQSQGSSSENDCLKMIYHFYEENGFGTLASKTSQDFKYWLQDFIQKGASQEEACQLILHALGIAVDRNKRNYGYVNAILKSWEQQNYLSVHEVLVNDKKQVLEHAPQMTEEYQELGF
  soluble on expression in E. coli: not soluble

## MGSDKIHHHHHHMKNVVTDPEKVTRILKTATEIFGQQGFIKSKTDQIANQAQVSKGLLFHYFGNKQALYLDAFKYAYHRIYDHMDPKKWQNAPGLAAMMTTAVKYELKLQFKFPAEYRLMMQAYADLPHFPEPLRQQVQQETTAISAEADRIFREKIEQLPRREGLSVDDVFGVVSALIAQQTAVTTRLIASGHYRKFEDLQSVVETMARQLLIVEHGFLPDES
  soluble on expression in E. coli: not soluble

## MKALLEWIRKDMKPALGVTEPAAIALACAAARAMTEEPAECLLVRENSGIYKNAFTCGIPGTDKIGNEFAAALGCVAGDKEKGLLVLEEISDADVEAAKRFIEDGKVKVEVSQISSELFIYACVRTEHDCCEAEIRGQHTNICRLVKNGRVLLEKKTRELEETARPGSLTDYTMEEFFRFAKETPVEDLYFIREAYRVNLELAKAALTSERCTLTKSLLAFNGGTDVSGDLRATARFFAGAASEARVLGLDKPAMSITGSGNHGIICTMPLYAMYRVEHHSEESLLRATVLSYLITMYMKEYSGKLSAFCGCAVAAGTGMACAMTFMRGGGFEEVLATLNNMAASIVGMICTGGNHACCMKVLAAVDTAVTSTELALSGKCISPEHGVADVCPEKTMQNIGLIAYPGMTETERVILEIMQNKKGGAKGHEETD
  soluble on expression in E. coli: not soluble

## MMNTDNRLLTRESSEHIREFFSTVERLSVSMERLFAGRSPAMAGENFYTDRELAEKLKVSRRSLQQYRDSGLLAFTRLGGKILYRSSDIEKLLDGCYREARTRPEEL
  soluble on expression in E. coli: not soluble

## MAHHHHHHMSLSIHTNYGDIKIELFCYEVPKTCKNFLALCASGYYDNTKFHKNIKGFAIQGGDPTNTGKGGQSIYGKYFEDEFDSTLKHDKRGIVSMANKGKPNTNGSQFFITYSRQPHLNGIYPVFGKVIDGMDVLSVLENEPVGEKSRPIKDIIIETITIHANPIAEEESVDN
  soluble on expression in E. coli: not soluble

## MAHHHHHHMMNMFYRRDFPVSFRYVNDHSKFIGAGSGRGNRKRGMAPNNYTEYLRIMANEANGTGQDTSRVLFIDSEVNYRFTPVQTIVLDAYEPLTRRQQRRLVQQQYSNPFGDVSSRNARRYGAAAARARKMTVRHRAVVSAQHLQDAVDMQQKYTDFLIAEQEGVQLPPEMRNGVQDGHGGDLCHFSKRHPQRSAPSSSSPPHPQQGGSTRGRVSGPLSTPGPSSLADTESDKTPPDGNKDIKEEQQQLSMSCALAVNLEDYSLVALAEMIAEMSASETSVADYIKTEPLIEKVEVPFHGKANYLAPENCDNIDLLNWDEIQVLEKAHGTGVPEMVEETEDHKDFFR
  soluble on expression in E. coli: not soluble

## MSLMAVNVNTNVAAMTAQRYLTGATNAQQTSMERLSSGFKINSAKDDAAGLQISNRLNVQSRGLDVAVRNANDGISIAQTAEGAMNETTNILQRMRDLSLQSANGSNSKSERVAIQEEITALNDELNRIAETTSFGGNKLLNGTFSTKSFQIGADNGEAVMLTLKDMRSDNRMMGGTSYVAAEGKDKDWKVQAGANDITFTLKDIDGNDQTITVNAKEGDDIEEVATYINGQTDMVKASVNEKGQLQIFAGNNKVTGDVAFSGGLAGALNMQAGTAETVDTIDVTSVGGAQQSVAVIDSALKYVDSHRAELGAFQNRFNHAISNLDNINENVNASKSRIKDTDFAKETTALTKSQILSQASSSVLAQAKQAPNAALSLLG
  soluble on expression in E. coli: soluble

## MEKAADLQDTASLTLKFKFNPKLGIDNPVLSLAEDHDPYDPWSLERPRFCLLSKEEGKSFGFHLQQELGRAGHVVCRVDPGTSAQRQGLQEGDRILAVNNDVVEHEDYAVVVRRIRASSPRVLLTVLARHAHDVARAQLGEDAHLCPTLGPGVRPRLCHIVKDEGGFGFSVTHGNQGPFWLVLSTGGAAERAGVPPGARLLEVNGLWQSGQQVTLLVAGPEVEEQCRQLGLPLAAPLAEGWALPTKPRCLHLEKGPQGFGFLLREEKGLDGRPGQFLWEVDPGLPAKKAGMQAGDRLVAVAGESVEGLGHEETVSRIQGQGSCVSLTVVDPEADRFFSMVRLSPLLFLENTEAPASPQGSSSASLVETEDPSLEDTSVPSVPLGSRQCFLYPGPGGSYGFRLSCVASGPRLFISQVTPGGSAARAGLQVGDVILEVNGYPVGGQNDLERLQQLPEAEPPLCLKLAARSLRGLEAWIPPGAAEDWALASDLL
  soluble on expression in E. coli: soluble

## SLQTEESICTKIMKELHSEDSPNALVIKNEHVKKCDTWPSGGEMVVKDLTVKYVDDGNAILENISFSISPGQRVGLLGRTGSGKSTLLSAFLRMLNIKGEIQIDGVSWNSMTLQEWRKAFGVITQKVFIFSGTFRQNLDPNGKWRDEEIWKVADQVGLKSVIEQFPGQLNFTLVDGGYVLSHGHKQLMCLARSVLSKAKIILLDQPSANLDPITYQVIRRVLRQAFAGCTVVLCEHRIEAMLDCQRFLVIEQGNVWQYESLQALLSEKSVFQRALSSSEKMKLFHGRHSSKQKPRTQITAVKEETEEEVQETRL
  soluble on expression in E. coli: not soluble
